Measurements taken from PMC13066552 (Nature Communications, 2026).

Target: the molecule itself
Assay: methyl-TROSY NMR spectra compared

B1: Bpa 45-153 (domain or fragment)
chain: AKVMRIGTMIKQLLEEVRAAPLDEASRNRLRDIHATSIRELEDGLAPELREELDRLTLPFNEDAVPSDAELRIAQAQLVGWLEGLFHGIQTALFAQQMAARAQLQQMRQ
stoichiometry N: 4 subunits
